According to patent US20200223906A1 (Adimab, published 2020):

Columns and labels:
[1] = molecular target: RSV F protein of subtype A (strain A2) on recombinant mKate-RSV (respiratory syncytial virus subtype A …, UniProt P03420 26-574); experiment: cell-based or functional assay
[2] = molecular target: RSV F protein of subtype B (18537) on recombinant mKate-RSV (respiratory syncytial virus subtype B …, UniProt P13843 26-574); experiment: cell-based or functional assay

B1: ADI-18987 (antibody, V domains shown)
VH: QVQLVQSGAEVKKPGSSVKVSCKASGGTFSGHAINWVRQAPGQGLEWMGGIIHIFGTVNYAPKFQGRVTITADASTGTVYMELSSLISEDTAVYYCARDAYEVWTGSYLPPFDDWGQGTLVTVSS
VL: DIVMTQSPGTLSLSPGDRVTLSCRASQTVTSSYLAWYQQKPGQAPRLLIYGAFTRATGIPDRFSGSGSGTDFTLSISRLEPEDFAVYYCQQYGSSFLTFGGGTKVDIK
Neut IC50 subtype A [1]: 0.015 µg/mL | Neut IC50 subtype B [2]: 0.027 µg/mL

B2: ADI-18994 (antibody, V domains shown)
VH: QVQLVQSGAEVKKPGASVKVSCKASGYTFTNYGFSWVRQAPGQGLEWMGWILTHNGYTNYAQKFQDRVTMKTDTSTSTVYMELRSLRSVDTAVYYCARIGHVTAVAGAPPDYWGQGTLVTVSS
VL: QPVLTQPASVSGYQGQSITISCSGTSSDVGTYNLVSWYQQHPGKAPELMIYEGSKRPSGVSDRFSGSKSGNTASLTISGLQAEDEADYYCCSYVAGSTSVFGGGTKLTVL
Neut IC50 subtype A [1]: 0.047 µg/mL | Neut IC50 subtype B [2]: 0.108 µg/mL

B3: ADI-18993 (antibody, V domains shown)
VH: EVQLVESGGGLVKPGGSLRLSCAASGFTLSSYAMNWVRQAPGKGLEWVSSISAGSSYIDYADSVKGRFTISRDNAKNSLYLQMNNLRAEDTALYYCAREVLPATAIGGAWLDPWGQGTLVTVSS
VL: QSVLTQPPSVSGAPGQTVTISCTGSSSNIGAGYDVHWYRQLPGTAPKLLIYSNNNRPSGVPDRFSGSKSDTSASLAITGLQAGDEADYYCQSYDISLSASYVFGTGTKVTVL
Neut IC50 subtype A [1]: 0.078 µg/mL | Neut IC50 subtype B [2]: 0.128 µg/mL

B4: ADI-18986 (antibody, V domains shown)
VH: EVQLLESGGGVVQPGKSLRLSCAASGFTFNTYAIHWVRQAPGKGLEWVAAISYDGSNEYYSNSVKGRFTISRDNSKYTLELQMNSLRPEDTAVYYCARGASYYYVSSDLGYWGQGTLVTVSS
VL: QSVVTQPPSVSGAPGQRVTISCTGSSSNIGSGYDVHWYQQLPGTAPKVVIYGNINRPSGVPERFSGSKSGTSASLAITGLQAEDEADYYCQSYDSLSASWVFGGGTKLTVL
Neut IC50 subtype A [1]: 0.464 µg/mL | Neut IC50 subtype B [2]: 0.123 µg/mL

B5: ADI-18988 (antibody, V domains shown)
VH: EVQLVESGGGLVRPGGSLRLSCAASGFSLSSYGMSWVRQAPGKGLEWVSSITAGSSYINYADSVKGRFTISRDNAKSSLFLQMTSLRVEDTAVYFCVREAYASSSALYWFDPWGQGTLVTVSS
VL: QSVLTQPPSVSGAPGQRVTISCTGSSSNLGAGYVVHWYQQLPGTSPKLLIYGNTDRPSGVPDRFSGSKSGTSASLAISGLQAEDEADYYCQSYDSSLSGWVFGGGTKLTVL
Neut IC50 subtype A [1]: 0.089 µg/mL | Neut IC50 subtype B [2]: 0.37 µg/mL

B6: ADI-18985 (antibody, V domains shown)
VH: QVQLVQSGPEVKKPGASVKVSCEASGYTFTDFFVHWVRQAPGEGLVWLGWVNPLSGATKYAQNFQGRVTMTSDTSITTAYMALSSLRHDDTAVYYCTSQTSPYTPGAMGVWGQGTTVTVSS
VL: DIRVTQSPASLSAFVGDRVTITCRASPAISGYLSWYQQKAGKAPKILIYDASNLYSGAPSRFSGSRSGTDFTLTITSLQPEDFATYYCQQTYNGLIAFGPGTKVEIK
Neut IC50 subtype A [1]: 0.034 µg/mL | Neut IC50 subtype B [2]: 0.09 µg/mL

B7: ADI-18983 (antibody, V domains shown)
VH: EVQLVESGGGVVQPGRSLRLSCAASGFTFSSFSMHWVRQAPGKGLEWVALISSDERNSYYADSVKGRFTISRDNSKNTLYLQISRLKVEDTAVYYCAREAYEEWELTMGNLDHWGQGTLVTVSS
VL: DIQLTQSPSSLSASVGDRVTITCRASQGIGNDLGWYQQKPGKAPKRLIYSTYSLQSGVPSRFSGSGSGTEFTLTISSLQPEDFATYYCLQHNRYPFTFGPGTKLEIK
Neut IC50 subtype A [1]: 0.028 µg/mL | Neut IC50 subtype B [2]: 0.075 µg/mL

B8: ADI-18991 (antibody, V domains shown)
VH: EVQLVESGPGLVKPSETLSLSCIVSGDSITSNDYYWSWIRQSPGKGLEWIGYIYHSGATFYTPSLRSRVTISTDRSKNQFSLRLSSVTAADTAVYYCASGPVGMATSNWFDPWGQGTLVTVSS
VL: QPVLTQPPSVSVAPGKTATLTCGGDIIRTNSVNWYQQKPGQAPVLIIYYDSDRPSGIPGRFSASNSGSAATLTISRVEAGDEADYYCQVWDSSTDYHVVFGGGTKLTVL
Neut IC50 subtype A [1]: 0.028 µg/mL | Neut IC50 subtype B [2]: 0.228 µg/mL
